System: MS2 coat protein
Test: apparent KD of MS2 coat protein; designed switch direction (-1 OFF switch, 1 ON switch): 1; higher = weaker reporter binding
How it was run: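 Designed RNA switches with common flanks were transcribed on Illumina chips by stalled E. coli RNA polymerase and titrated with SNAP-549-labelled MS2 coat protein, from 0.7 or 1.5 nM doubling to 3 µM, in Tris-HCl pH 7.5 buffer with KCl, MgCl2, BSA, DTT, tRNA and Tween-20. Steps lasted 0.8–1.5 h (lowest) to 10–20 min (highest). Titrations ran without input, with 200 uM small-molecule ligand, or with an oligonucleotide input. Normalised cluster fluorescence was curve-fitted, and apparent KD is the per-design median over clusters.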

[1] = input ligand: microRNA oligo, concentration not stated
[2] = Eterna round: R95, input ligand: FMN 200 uM
[3] = Eterna round: R95, input ligand: microRNA oligo, concentration not stated
[4] = Eterna round: R95, input ligand: none

Row | Sequence | apparent KD of MS2 coat protein (input ligand: FMN 200 uM) [µM] | apparent KD of MS2 coat protein [1] [µM] | apparent KD of MS2 coat protein (input ligand: none) [µM] | apparent KD of MS2 coat protein [2] [µM] | apparent KD of MS2 coat protein [3] [µM] | apparent KD of MS2 coat protein [4] [µM]
1 | GGCGAACAGGCUAACAUGAGGAUCACCCAUGUGGACUUCGUGUAGGAUAUCGGGAAGGAGGAAACCGAGAAGGGCGAAGAAGCC [AK SSNG3-V2-49.1] (Eterna round: R96, puzzle: Same State NG 3) | 0.0552 | 0.0481 | 0.0551 | – | – | –
2 | AAAGACAUGAGGAUCACCCAUGUACAGACAAACCAGUCUGCACAGGAUAUCCCGAGGAUAACUCGGGAGAAGGGUGGCCAAAAC [Onveenes] (Eterna round: R96, puzzle: Same State NG 3) | 0.0748 | 0.0189 | 0.0335 | – | – | –
3 | GCGAAAUGAUGUGACAUGAGGAUCACCCAUGUAACCUCAUGUAAGGAUAUCGGAAAAAAAAAAACCGAGAAGGUAUGGUCACGC [AK SSNG3-V2-27.1] (Eterna round: R96, puzzle: Same State NG 3) | 0.124 | 0.0864 | 0.216 | – | – | –
4 | UGGAUCUAGGCUUGCCUGGGUCCAUGCUGACAUGAGGAUCACCCAUGUGCAUCCUACAAGCUUUUUGCUUGUCUGUC (puzzle: Sensor for hsa-mir-208a) | – | – | – | 0.0607 | 0.0697 | 0.051
5 | GUUACAUGAGGAUCACCCAUGUAUGUGUGGGAGUAAGUGUCUUAGGAUAUCUAUUAUUUAAUUUAAGAGAAGGAAGAUUGUUGU [JMF's solution 22] (Eterna round: R96, puzzle: Same State NG 3) | – | 0.0823 | – | – | – | –
6 | GGAAUAUUUACAGGAUAUCAUUUGUAAAUUCGAUGAGAAGGGUAGAUGUCUUACACGACGUGUUACAUGAGGAUCACCCAUGUU [SameState NG1 #7] (Eterna round: R96, puzzle: Same State NG 1) | 0.146 | 0.142 | 0.145 | – | – | –
7 | CUACGAGCGCCACAGGAUAUACUGAGACUCACAUGAGGAUCACCCAUGUCCAAUUCUCCCAAAUAGUAGAAGGGUGACGCGCUCG [Maenve] (puzzle: Same State 2) | – | – | – | 0.0371 | 0.48 | 0.95
8 | GAUCGUUUGAUAGGAUAUCGCUAUACAUGAGGAUCACCCAUGUUUACCACGCUGGUUUUUCAUACCGAGAAGGAUUCUGAUGAC [salish99_SSNG02_r04_007] (Eterna round: R96, puzzle: Same State NG 2) | 0.0215 | 0.0155 | 0.0266 | – | – | –
9 | CUGCUCGUGUGAGGAUAUGCCGCCGUUUCGGCUGCAGAAGGUGCUACGUUACAUGAGGAUCACCCAUGUCUCUGUUGUUUCGUG [salish99_SSNG1_r04_944] (Eterna round: R96, puzzle: Same State NG 1) | 0.0207 | 0.0158 | 0.0228 | – | – | –
10 | UAAGAACAUGAGGAUCACCCAUGUGGAAAGAACACAGGAUAUCAUGGAAGAACGAAACCAUGAGAAGGGUGACACG [Raatis] (puzzle: Same State 1) | – | – | – | 6.27 | 0.225 | 0.0243
11 | CAGAGCCCAUGGGCCUGACAUGAGGAUCACCCAUGUGGCUUUGAGGAUAUAAGCGGAAACACCACUUAGAAGGCGAAGCCUAAC [Bequedbi] (Eterna round: R96, puzzle: Same State NG 3) | 0.489 | 0.0371 | 0.0113 | – | – | –
12 | GGGCCAGCUUGUGCUGGGCCUUCGCAUGCACAUGAGGAUCACCCAUGUCGUGUACAUGCUUGGUGCCCGUCUUUAAA [Photon Torp-13] (puzzle: Sensor for hsa-mir-208a) | – | – | – | 0.102 | 0.0139 | 0.103
13 | CCGUAAAUGGAAGGAUAUGGAGCCUUAUUGGCUCCAGAAGGUUCAAUAACAUGAGGAUCACCCAUGUCGGCGGUCAAUAGACCG [Eli NG1ss - 79] (Eterna round: R96, puzzle: Same State NG 1) | 0.0153 | 0.0337 | 0.0417 | – | – | –
14 | GAGUGGAAGUAAGGAUAUAUAAUGAUAAUCACAGUAGAAGGUACUAACAUGAGGAUCACCCAUGUAGGACUAUACCAGAGAGGG [Parity 44 - Jieux - Same State NG 1] (Eterna round: R96, puzzle: Same State NG 1) | – | 0.0123 | – | – | – | –
15 | AAGAGGUCCGCAGGAUAUACCCGGGCUCGCCGGGUAGAAGGGUGAACCUCAUAACCCACCACACACAUGAGGAUCACCCAUGUA [Tedile] (Eterna round: R96, puzzle: Same State NG 1) | 0.113 | 0.219 | 0.00457 | – | – | –
16 | GCUCGAUGUGCUGUUUACAUGAGGAUCACCCAUGUAGAUGCGGAGGAUAUCUACGUGCUUUAUGUAGAGAAGGUCGUAUCGAGC [SameState NG3 #83] (Eterna round: R96, puzzle: Same State NG 3) | 0.0334 | 0.0412 | 0.0608 | – | – | –
17 | CAAGCUUGGGUCUUCCCGCUCGUCUACAAACAUGAGGAUCACCCAUGUAUACUCUUCGCAUCAAUUCUAUCUCUUGG [Onraenbi] (Eterna round: R96, puzzle: Sensor for hsa-mir-208a) | 0.176 | 0.0231 | 0.163 | – | – | –
18 | GAAAUAUAACAUGAGGAUCACCCAUGUACAUUGGUACGGCGGAAGGAUAUGAAAGACAUGGUCAAUUAGAAGGUCCUAUCAAAA [Eternabot solution 50] (Eterna round: R96, puzzle: Same State NG 3) | 0.102 | 0.114 | 0.139 | – | – | –
19 | UUUAGUUGCGGGCAGGAUAUGUAUUAAAAUACAUGAGGAUCACCCAUGUGCGGGUAUAACACCCGGCAGAAGGGCCAAUCGCGAC [Laonerce - 3] (puzzle: Same State 2) | – | – | – | 0.0342 | 0.191 | 0.296
20 | GAUUAACAUGAGGAUCACCCAUGUCGUUUUAUGGGAGGAUAUACGUGGACCGUAGUCCGCGUAGAAGGCCUAAUUG [JL-ss1-3.23 janelle mod] (puzzle: Same State 1) | – | – | – | – | 0.0973 | –
21 | UAUCCAUAGAUAGGAUAUCAGUAUACAUGAGGAUCACCCAUGUUAUAUUUGGUUUUAAGUUAGUCUGAGAAGGAUCUUGAUGAA [SameState NG2 #3] (Eterna round: R96, puzzle: Same State NG 2) | 0.0124 | 0.0111 | 0.0156 | – | – | –
22 | CGUCCGGCCUGUGCUGGCCGGUAGCUUGUACAUGAGGAUCACCCAUGUUCAUGUGCAGGCUUUUUGCUCGUCUUGUG [salish99_mir208a_014] (puzzle: Sensor for hsa-mir-208a) | – | – | – | 0.0279 | 0.0296 | 0.0315
23 | UAUUAAGCUGUAGGAUAUCUAGGAUAUGGACGAGGAUCACCCGAGCAGCAUCAGCGCACCAGAGGAGAGAAGGACGCUUUGGUG [pwkr ssNG2 2F5 2FMN.23] (Eterna round: R96, puzzle: Same State NG 2) | 0.961 | 0.348 | 2.73 | – | – | –
24 | GUGGUGAAUUAAGGAUAUCGAGUCUAGAUGUUAAACAUGAGGAUCACCCAUGUGGGUUGCGGUGUCGAGAAGGUGGUUUACGGG [salish99_SSNG2_r04_510] (Eterna round: R96, puzzle: Same State NG 2) | 0.0632 | 0.084 | 0.0723 | – | – | –
25 | AGUAGUGUAACAUGAGGAUCACCCAUGUAAGAAUAUGUAACCUAGGAUAUGGAGGUUAUGUUUGACCAGAAGGAGGAUUGUUUA [JR_SSNG3_Sub041] (Eterna round: R96, puzzle: Same State NG 3) | 0.027 | 0.0203 | 0.0259 | – | – | –
26 | GGCAGGUGCAGGCUUGCUUGCACCUGGAAACAUGAGGAUCACCCAUGUUUGGGACAAGCUUUGCUCCUCGUCUUGUC [JL ViennaUCT Isusreraar mod 2] (Eterna round: R96, puzzle: Sensor for hsa-mir-208a) | 0.0384 | 0.0392 | 0.0428 | – | – | –
27 | GUUACAUGAGGAUCACCCAUGUGUGUGUGGGAGUGAGUGGCUUAGGAUAUCUAUGAUUUAAGUUAAGAGAAGGGAGAUUGUUGU [SS-NG3-LRO04] (Eterna round: R96, puzzle: Same State NG 3) | 0.441 | 0.33 | 0.344 | – | – | –
28 | UUAUAACAUGAGGAUCACCCAUGUCAACAAAGUCGAGGAUAUGGGCAAGAAGUGAGAGAACCAGAAGGCGAAUAUU [Mat - Same State 1 - Mod of UCT - D30] (puzzle: Same State 1) | – | – | – | 0.072 | 0.0887 | 0.0974

Source: the supplement of paper PMC9170038
